Laboratory results taken from publication PMC3146575.

Experiments:
[1] = target: T1, hOGG1 K249Q (catalytically inactive) (human, UniProt O15527 1-345, K249Q); assay: EMSA
[2] = target: T1, hOGG1 K249Q (catalytically inactive); assay: EMSA; remark: listed apart in the source

T1 sequence (O15527 whole entry K249Q): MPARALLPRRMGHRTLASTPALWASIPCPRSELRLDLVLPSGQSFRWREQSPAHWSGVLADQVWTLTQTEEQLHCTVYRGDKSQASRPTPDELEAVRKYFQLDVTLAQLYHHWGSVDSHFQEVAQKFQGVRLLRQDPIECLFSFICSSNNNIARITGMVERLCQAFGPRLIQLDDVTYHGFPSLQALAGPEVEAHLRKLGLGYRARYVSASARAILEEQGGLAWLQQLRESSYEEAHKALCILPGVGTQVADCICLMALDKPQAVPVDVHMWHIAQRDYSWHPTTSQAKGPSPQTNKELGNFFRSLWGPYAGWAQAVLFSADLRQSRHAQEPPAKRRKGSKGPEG

B1: Stem-DUP (dsDNA)
DNA 1: CAGCAGCAGCAGCAGCAGCAGCAGCAGCAG
DNA 2: CTGCTGCTGCTGCTGCTGCTGCTGCTGCTG
modifications: 8-oxoG in 2nd CAG repeat (G6 of strand 1)
- Kd [1]: 21.7 ± 6.8 nM

Binder: CAGCAGCAGCAGCAGCAGCAGCAGCAGCAG (structured_DNA, 8-oxoG in 5th CAG repeat (G15)) [Loop-HP]
- binding result [2]: no binding

Binder: CAGCAGCAGCAGCAGCAGCAGCAGCAGCAG (structured_DNA, 8-oxoG in 2nd CAG repeat (G6)) [Stem-HP]
- binding result [2]: no binding
